Substitutions are numbered along the chain they refer to.
Assays:
[1] = target: T1, soluble fusion protein Flk-1-AP (murine, UniProt P35918 20-762); test: blocking of VEGF binding to Flk-1
T1 construct: expressed in NIH 3T3; not shown: alkaline phosphatase (AP)

[2] = target: human KDR (VEGFR-2), cell surface-expressed (HUVEC) (human, UniProt P35968 20-1356); test: cell-based or functional assay
[3] = target: T2, soluble fusion protein KDR (VEGFR-2)-AP (human, UniProt P35968 20-764); test: BIAcore, KDR-AP immobilized
T2 construct: extracellular domain; expressed in NIH 3T3 cells; also called KDR-AP; KDR (VEGFR-2)-alkaline phosphatase fusion protein; not shown: human placental alkaline phosphatase (AP), vector AP-Tag
T2 sequence (P35968 20-764): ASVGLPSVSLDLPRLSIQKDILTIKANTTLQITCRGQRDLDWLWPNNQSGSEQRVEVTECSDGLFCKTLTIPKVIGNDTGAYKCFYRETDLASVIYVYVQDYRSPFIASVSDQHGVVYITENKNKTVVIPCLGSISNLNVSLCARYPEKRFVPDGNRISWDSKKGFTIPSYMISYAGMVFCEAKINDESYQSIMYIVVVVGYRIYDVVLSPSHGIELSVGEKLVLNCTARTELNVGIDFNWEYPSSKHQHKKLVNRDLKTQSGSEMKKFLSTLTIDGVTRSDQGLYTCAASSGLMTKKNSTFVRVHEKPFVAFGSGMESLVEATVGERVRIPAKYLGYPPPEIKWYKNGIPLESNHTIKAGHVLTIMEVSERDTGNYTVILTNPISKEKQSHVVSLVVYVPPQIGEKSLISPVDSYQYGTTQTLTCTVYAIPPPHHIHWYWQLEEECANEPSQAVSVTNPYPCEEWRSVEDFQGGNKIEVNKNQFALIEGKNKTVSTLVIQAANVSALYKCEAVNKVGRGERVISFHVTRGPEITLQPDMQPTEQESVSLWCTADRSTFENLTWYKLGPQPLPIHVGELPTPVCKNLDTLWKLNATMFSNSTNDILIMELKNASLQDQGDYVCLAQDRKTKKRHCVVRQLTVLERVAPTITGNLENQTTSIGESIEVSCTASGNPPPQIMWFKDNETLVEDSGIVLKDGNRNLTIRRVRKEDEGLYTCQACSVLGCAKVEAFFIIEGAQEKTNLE
Procedure: The binding kinetics of soluble Fab proteins to KDR (VEGFR-2) were measured by surface plasmon resonance using a BIAcore biosensor (Pharmacia Biosensor). […] Sensorgrams were obtained at each concentration and were evaluated using a program, BIA Evaluation 2.0, to determine the rate constants kon and koff Kd was calculated from the ratio of rate constants koff/kon.

[4] = target: T2, soluble fusion protein KDR (VEGFR-2)-AP; test: competitive ELISA: KDR-AP binding to immobilized VEGF165
Procedure: In a direct binding assay, various amounts of soluble Fab proteins were added to KDR (VEGFR-2)-coated 96-well Maxi-sorp microtiter plates and incubated at RT for 1 h, after which the plates were washed 3 times with PBST. The plates were then incubated at RT for 1 h with 100 Φl of a rabbit anti-human Fab antibody-HRP conjugate (Jackson ImmunoResearch Laboratory Inc., West Grove, Pa.). The plates were washed and developed following the procedure described above for the phage ELISA. […] The mixtures were then transferred to 96-well microtiter plates precoated with VEGF₁₆₅ (200 ng/well) and incubated at RT for an additional 2 h, after which the plates were washed 5 times and the substrate for AP (p-nitrophenyl phosphate, Sigma) was added. Absorbance at 405 nm was measured to quantify the bound KDR (VEGFR-2)-AP molecules (8).

[5] = target: T1, soluble fusion protein Flk-1-AP; test: ELISA on captured Flk-1-AP
[6] = target: human KDR (VEGFR-2), construct not stated (human, UniProt P35968 20-764, limits assumed); test: selection from second Fab phage library
human KDR (VEGFR-2), construct not stated, sequence (P35968 20-764 limits assumed): as the sequence (P35968 20-764) above

T1 sequence (P35918 20-762): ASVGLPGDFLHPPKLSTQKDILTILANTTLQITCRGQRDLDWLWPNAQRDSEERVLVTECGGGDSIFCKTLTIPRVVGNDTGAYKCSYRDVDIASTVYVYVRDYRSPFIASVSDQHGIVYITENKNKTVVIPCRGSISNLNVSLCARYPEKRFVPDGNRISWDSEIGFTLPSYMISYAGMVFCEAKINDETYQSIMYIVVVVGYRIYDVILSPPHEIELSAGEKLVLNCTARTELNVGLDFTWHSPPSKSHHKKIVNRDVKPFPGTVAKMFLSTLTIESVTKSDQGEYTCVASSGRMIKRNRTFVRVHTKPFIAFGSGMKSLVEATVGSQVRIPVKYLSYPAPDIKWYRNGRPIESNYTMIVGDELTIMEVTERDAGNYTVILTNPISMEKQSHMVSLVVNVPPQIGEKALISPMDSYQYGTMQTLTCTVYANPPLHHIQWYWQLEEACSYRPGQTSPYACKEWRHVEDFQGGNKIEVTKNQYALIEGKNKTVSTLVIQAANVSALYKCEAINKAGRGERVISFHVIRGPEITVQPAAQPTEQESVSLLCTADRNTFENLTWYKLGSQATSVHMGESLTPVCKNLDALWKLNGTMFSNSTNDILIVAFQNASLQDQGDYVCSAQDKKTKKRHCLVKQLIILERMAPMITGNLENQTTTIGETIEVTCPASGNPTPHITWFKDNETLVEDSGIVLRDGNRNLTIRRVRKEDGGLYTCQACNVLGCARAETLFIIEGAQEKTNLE
human KDR (VEGFR-2), cell surface-expressed (HUVEC), sequence (P35968 20-1356): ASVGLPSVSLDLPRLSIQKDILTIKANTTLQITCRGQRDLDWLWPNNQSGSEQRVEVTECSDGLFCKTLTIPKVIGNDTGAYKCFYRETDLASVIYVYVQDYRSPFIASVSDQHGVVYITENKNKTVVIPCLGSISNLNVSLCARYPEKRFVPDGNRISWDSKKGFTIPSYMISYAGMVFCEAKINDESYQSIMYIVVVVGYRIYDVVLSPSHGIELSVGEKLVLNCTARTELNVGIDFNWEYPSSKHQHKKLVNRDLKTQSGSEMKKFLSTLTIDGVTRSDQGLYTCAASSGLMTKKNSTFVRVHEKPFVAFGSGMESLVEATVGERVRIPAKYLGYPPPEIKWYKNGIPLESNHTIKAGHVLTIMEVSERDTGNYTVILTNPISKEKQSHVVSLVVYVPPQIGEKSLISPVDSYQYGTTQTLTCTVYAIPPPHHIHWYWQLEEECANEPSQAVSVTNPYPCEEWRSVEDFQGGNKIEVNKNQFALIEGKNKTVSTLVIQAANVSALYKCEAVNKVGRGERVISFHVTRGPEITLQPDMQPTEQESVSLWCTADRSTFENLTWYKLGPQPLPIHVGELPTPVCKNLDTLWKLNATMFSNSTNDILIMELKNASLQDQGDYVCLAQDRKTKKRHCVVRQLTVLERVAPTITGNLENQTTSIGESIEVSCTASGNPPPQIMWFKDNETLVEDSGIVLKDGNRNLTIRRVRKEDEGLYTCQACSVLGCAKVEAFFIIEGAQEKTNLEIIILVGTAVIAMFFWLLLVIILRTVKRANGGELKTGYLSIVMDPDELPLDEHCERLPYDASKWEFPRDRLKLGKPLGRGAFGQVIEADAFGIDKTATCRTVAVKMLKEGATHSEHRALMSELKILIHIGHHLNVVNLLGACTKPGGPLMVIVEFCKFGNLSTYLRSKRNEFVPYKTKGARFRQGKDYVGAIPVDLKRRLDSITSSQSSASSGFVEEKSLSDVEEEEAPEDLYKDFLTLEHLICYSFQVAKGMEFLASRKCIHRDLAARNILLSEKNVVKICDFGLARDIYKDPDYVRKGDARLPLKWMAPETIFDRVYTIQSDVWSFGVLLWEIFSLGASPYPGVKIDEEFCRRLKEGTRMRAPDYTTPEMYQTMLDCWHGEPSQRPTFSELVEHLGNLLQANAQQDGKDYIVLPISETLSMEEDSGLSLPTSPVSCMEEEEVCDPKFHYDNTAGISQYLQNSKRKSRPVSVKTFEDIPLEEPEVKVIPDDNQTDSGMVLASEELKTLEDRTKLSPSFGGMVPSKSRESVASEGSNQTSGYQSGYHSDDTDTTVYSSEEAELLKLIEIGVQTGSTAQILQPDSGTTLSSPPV

B1: human anti-KDR (VEGFR-2) Fab D1F7 (Fab, V domains shown)
VH: EVQLVQSGAEVKKPGASVKVSCKASGGTFSSYAISWVRQAPGQGLEWMGGIIPIFGTANYAQKFQGRVTFTADKSTSTAYMELRSLRSDDTAVYYCARGYDYYDSSGVASPFDYWGQGTLVTVSS
VL: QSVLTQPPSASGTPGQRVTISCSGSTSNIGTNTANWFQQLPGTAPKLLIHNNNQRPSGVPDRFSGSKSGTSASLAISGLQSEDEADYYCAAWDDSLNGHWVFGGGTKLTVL
notes: soluble Fab from E. coli HB2151; also called DIF7; Hu-1F7 Fab
IC50 [1]: ~15 nM
EC50, inhibition of VEGF-stimulated [3H]-TdR incorporation in HUVEC [2]: ~15 nM
Kd [3]: 45.2 nM
koff [3]: 0.00187 s⁻¹
kon [3]: 41400 M⁻¹ s⁻¹
IC50 [4]: ~20 nM

B2: human anti-KDR (VEGFR-2) Fab D2C6 (Fab, V domains shown)
VH: EVQLVQSGGGLVKPGGSLRLSCAASGFTFSSYSMNWVRQAPGKGLEWVSSISSSSSYIYYADSVKGRFTISRDNAKNSLYLQMNSLRAEDTAVYYCARVTDAFDIWGQGTMVTVSS
VL: EIVMTQSPATLSLSPGERATLSCRASQSVSSYLAWYQQKPGQAPRLLIYDSSNRATGIPARFSGSGSGTDFTLTISSLEPEDFATYYCLQHNTFPPTFGQGTKVEIK
notes: soluble Fab from E. coli HB2151; also called Hu-2C6 Fab
binding result [5]: no binding
EC50, inhibition of VEGF-stimulated [3H]-TdR incorporation in HUVEC [2]: ~0.5 nM
Kd [3]: 1.97 nM
koff [3]: 0.000538 s⁻¹
kon [3]: 273000 M⁻¹ s⁻¹
IC50 [4]: ~2 nM

B3: human Fab SF2 (Fab, V domains shown)
VH: B2 VH
VL: QSVVTQPPSVSGAPGQRVTISCTGSSSNIGTGYDVHWYQQVPGSAPKLLIYAYTNRPSGVPDRFSGSKSGMSASLVIGGLQAEDEADYYCQSFDDSLNGLVFGPGTSVTVL
notes: from the second library
binding result [6]: binds

B4: human Fab SA1 (Fab, V domains shown)
VH: B2 VH
VL: QSVVTQPPSVSGAPGQRVTISCTGSHSNFGAGTDVHWYQHLPGTAPRLLIHGDSNRPSGVPDRFSGSRSGTSASLAITGLRVEDEADYYCQSYDYGLRGWVFGGGTKLTVL
notes: from the second library (D2C6 heavy chain with shuffled light chains)
binding result [6]: binds

B5: human Fab 1121 (Fab, V domains shown)
VH: B2 VH
VL: DIQMTQSPSSVSASIGDRVTITCRASQGIDNWLGWYQQKPGKAPKLLIYDASNLDTGVPSRFSGSGSGTYFTLTISSLQAEDFAVYFCQQAKAFPPTFGGGTKVDIK
notes: from the second library
binding result [6]: binds

B6: human Fab SB10 (Fab, V domains shown)
VH: B2 VH
VL: QSALTQPASVSGSRGQSITLSCTGSSTDVGNYNYISWYQQHPGQAPKLLIYDVTSRPSGVSDRFSGSKSGLTASLTISGLQPEDEADYYCNSYSATDTLVFGGGTKLTVL
notes: from the second library
binding result [6]: binds

B7: human anti-KDR (VEGFR-2) Fab D1H4 (Fab, V domains shown)
VH: B2 VH
VL: QSALTQPASLSGSPGQSITISCAGTTTDLTYYDLVSWYQQHPGQAPKLVIYDGNKRPSGVSNRFSGSKSGNTASLTISGLQAEDEADYYCNSYVSSRFYVFGTGTKVTVL
notes: soluble Fab from E. coli HB2151; also called Hu-1H4 Fab
binding result [5]: no binding
EC50, inhibition of VEGF-stimulated [3H]-TdR incorporation in HUVEC [2]: ~0.5 nM
Kd [3]: 2.76 nM
koff [3]: 0.000153 s⁻¹
kon [3]: 55500 M⁻¹ s⁻¹
IC50 [4]: ~2 nM

B8: human Fab SB5 (Fab, V domains shown)
VH: B2 VH
VL: QAVLTQPSSVSGAPGQRVTISCTGQSSNIGADYDVHWYQQFPGTAPKLLIYGHNNRPSGVPDRFSGSKSGTSVSLVISGLQAEDEADYYCQSYDSSLSGLVFGGGTKVTVL
notes: from the second library
binding result [6]: binds

B9: human Fab SC7 (Fab, V domains shown)
VH: B2 VH
VL: DIQLTQSPSSVSASVGDSVTITCRASQDISSWLAWYQQKPGEAPKLLIYAASLLQSGVPSRFSGSGSGTDFALTINSLQPEDFATYFCQQADSFPPTFGQGTRLEIK
notes: from the second library
binding result [6]: binds

B10: human Fab SD5 (Fab, V domains shown)
VH: B2 VH
VL: QSVVTQPPSVSGAPGQRVTISCSGSRSNIGAHYEVQWYQQFPGAAPKLLIYGDTNRPSGVPDRFSASHSGTSASLAITGLQAEDEADYYCQSYDTSLRGPVFGGGTKLTVL
notes: from the second library
binding result [6]: binds

B11: human Fab SA3 (Fab, V domains shown)
VH: B2 VH
VL: DVVMTQSPSSLSASVGDRVTITCRASQNINNYLNWYQQKPGKAPKLLIYAASTLQSGVPSRFSGSGSGTDFTLTITSLQPEDSATYYCQQYSRYPPTFGGGTKVEIT
notes: from the second library
binding result [6]: binds

B12: human anti-KDR (VEGFR-2) Fab D2H2 (Fab, V domains shown)
VH: B2 VH with N77D
VL: DIQLTQSPSSVSASVGDRVTITCRASQGISSRLAWYQQKPGKAPKLLIYAASSLQTGVPSRFSGSGSGTDFTLTISSLQPEDFATYYCQQANRFPPTFGPGTKVDIK
notes: soluble Fab from E. coli HB2151; also called Hu-2H2 Fab
binding result [5]: no binding
EC50, inhibition of VEGF-stimulated [3H]-TdR incorporation in HUVEC [2]: ~0.8 nM
Kd [3]: 3.93 nM
koff [3]: 0.000487 s⁻¹
kon [3]: 124000 M⁻¹ s⁻¹
IC50 [4]: ~2 nM

B13: human Fab SD2 (Fab, V domains shown)
VH: B2 VH
VL: DIELTQSPSSVSASVGDRVTLTCRASQSIKRWLAWYQQKPGKAPRLLIYAASTLQSGVPSRFSGGGSGTDFTLTINSLQPEDFAIYYCQQANSFPPTFGPGTKVDIK
notes: from the second library
binding result [6]: binds

B14: human Fab SF7 (Fab, V domains shown)
VH: B2 VH
VL: B4 VL with V4L, S54T, N55H, P61A, T71A
notes: from the second library
binding result [6]: binds
